From US9393309B2, “Self-gelatinizable nucleic acid” (Kyoto University, priority 2011, dated 2016)

Key:
Assay type in all cases: physicochemical
[1] = Formation of hydrogel from nucleic acid units without ligase; conditions: for gel formation singly or on mixing: final DNA concentration 2 mM, NaCl 150 mM; for gel formation: without DNA ligase
Description: A NaCl solution was added to an ODN solution (polypodna) such that the final Na^+ concentration was 5 to 150 mM. The gel formation and the gel strength were measured by a gel strength analyzer (gel strength meter, Nakayamadenki Co., Ltd, Osaka).
A structure to be a hydrogel (a nucleic acid monomer and an estimated nucleic acid unit) in conditions at room temperature, at 5 mM to 150 mM sodium chloride concentration (150 mM is substantially physiological concentration), and not containing a DNA ligase was elucidated. […] For convenience, nucleic acid units estimated to be formed according to the number of nucleic acid monomers capable of constituting the nucleic acid unit were represented by xxxpodna (xxxpod-like structure forming nucleic acid, xxx is substituted by tri (3), tetra (4) and the like, according to the number of nucleic acid monomers capable of constituting the nucleic acid unit). In Table 2 described below, xxxpodna is an estimated nucleic acid unit, and each of xxx-Y-N is a nucleic acid monomer that can be a constituent element of the nucleic acid unit (xxxpodna) which is mentioned above thereof. When the descriptions of Ys are different from each other, different nucleic acid units can be formed. N denotes numbering of nucleic acid monomers constituting each of the estimated nucleic acid units.
Unlike (1-1) described above, gelation can be controlled by using a nucleic acid monomer including cohesive protruding ends which are not attached to themselves (that is, not palindrome sequence).

[2] = Percentage of remaining gels with the passage of time
Description: Gels were formed by adjusting the NaCl concentration at 150 mM in an aqueous solution containing Tetrapodna (12-14-14) (SEQ ID NOs.: 30, 31, 32 and 33) at a DNA concentration of 0.1 mM, 0.25 mM or 0.5 mM, and the percentage of the remaining gels was measured with the passage of time. The results are shown in a graph in the left upper side of FIG. 17.
Gels were formed in conditions at a certain DNA concentration (0.5 mM) and a certain NaCl concentration (150 mM), and the percentage of the remaining gels was measured with the passage of time by using Tetrapodna (respectively, SEQ ID NOs.: 2, 4, 5 and 6, SEQ ID NOs.: 18, 19, 20 and 21, SEQ ID NOs.: 22, 23, 24 and 25, SEQ ID NOs.: 26, 27, 28 and 29, as well as SEQ ID NOs.: 30, 31, 32 and 33) having various lengths of the cohesive protruding end (4, 6, 8, 10 or 12 bases). The results are shown in a graph in the left lower side of FIG. 17. […] When 12 hours had passed, the percentage of the remaining gels became about 50%.
Gels were formed by variously changing the NaCl concentrations (5 mM, 50 mM, 100 mM or 150 mM) of an aqueous solution containing Tetrapodna (12-14-14) (SEQ ID NOs.: 30, 31, 32 and 33) at a DNA concentration of 0.5 mM, and the percentage of the remaining gels was measured with the passage of time. The results are shown in a graph in the right upper side of FIG. 17. […] At a low salt concentration (5 mM), almost all the formed gels became in a sol state when about 6 hours had passed. When the salt concentration was increased to 50 mM, solation tendency was weakened, a change from a gel into a sol occurred moderately (about 40% when 12 hours had passed).
The percentage of the remaining gels was measured with the passage of time in the same manner as in (8-3) except that Tetrapodna (4-18-18) (SEQ ID NOs.: 2, 4, 5 and 6) was used instead of Tetrapodna (12-14-14) (SEQ ID NOs.: 30, 31, 32 and 33). The results are shown in a graph in the right lower side of FIG. 17. […] In (8-3), Tetrapodna (12-14-14) (the length of the cohesive protruding end is 12 bases) was used. In (8-4), Tetrapodna (4-18-18) (the length of the cohesive protruding end is 4 bases) was used.

[3] = Evaluation of gelation at various DNA concentrations and NaCl concentrations; design: key: ◯: the mark “∘” is given to cases in which gelation was observed; X: the mark “x” is given to cases of a solution state (sol-state)
Description: […] The gel formation and the gel strength were measured by a gel strength analyzer (gel strength meter, Nakayamadenki Co., Ltd, Osaka).
Specifically, by changing the DNA concentrations of an aqueous solution of Tripodona (4-18-18) (X=4) (SEQ ID NOs.: 1, 2 and 3), Tetrapodna (4-18-18) (X=4) (SEQ ID NOs.: 2, 4, 5 and 6), Hexapodna (4-18-18) (X=4) (SEQ ID NOs.: 2, 3, 4, 7, 9 and 10) and Tetrapodna (8-16-16) (X=8) (SEQ ID NOs.: 22, 23, 24 and 25) as shown in the lines of Table 4, and by changing the NaCl concentration as shown in the rows of Table 4, whether or not a gel is formed at various DNA concentrations and NaCl concentrations was evaluated. The results are shown such that the mark “∘” is given to cases in which gelation was observed, and the mark “x” is given to cases of a solution state (sol-state).

dsDNA (12-14): double strand DNA, SEQ ID NOs.: 42 and 43, 12-base ends complementary to Tetrapodna (A) (chain 1 GACTGACTCTGAACGTCAGCGTTA; chain 2 GACTGACTCTGATAACGCTGACGT; DNA, all phosphodiester, methylation of C not given here)
gel formation singly or on mixing [1]: did not form a gel singly

B1: Tetrapodna (12-14-14): four ODNs, SEQ ID NOs.: 30, 31, 32 and 33, 12-base palindrome cohesive protruding end (nucleic acid)
DNA 1: ACGTCATGACGTTGCACGACATCACGTTGACGCTCGTCGA
DNA 2: ACGTCATGACGTTCGACGAGCGTCAATCTCGCAACGTGCA
DNA 3: ACGTCATGACGTTGCACGTTGCGAGACAGACGCTTGACGA
DNA 4: ACGTCATGACGTTCGTCAAGCGTCTGCGTGATGTCGTGCA
modifications: DNA, all phosphodiester, methylation of C not given here
gel formation (percentage of gels) ([2]; DNA 0.1 mM, NaCl 150 mM): about 25% | percentage of the remaining gels with the passage of time ([2]; DNA 0.25 mM, NaCl 150 mM): the initial percentage of gels was increased, but the percentage of the remaining gels was decreased with the passage of time | time until almost all the formed gels became in a sol state ([2]; DNA 0.5 mM, NaCl 5 mM): about 6 hours | change from a gel into a sol ([2]; DNA 0.5 mM, NaCl 50 mM, 12 hours): about 40% | initial percentage of gels ([2]; DNA 0.5 mM, NaCl 100 mM): about 100% | percentage of the remaining gels with the passage of time ([2]; DNA 0.5 mM, NaCl 100 mM): decreased with the passage of time only slightly | initial percentage of gels ([2]; DNA 0.5 mM, NaCl 150 mM): about 100% | percentage of the remaining gels with the passage of time ([2]; DNA 0.5 mM, NaCl 150 mM): decreased with the passage of time only slightly | gel formation [1]: gels can be prepared

B2: Tetrapodna (B): SEQ ID NOs.: 38, 39, 40 and 41, 12-base end complementary to Tetrapodna (A) (nucleic acid)
DNA 1: GACTGACTCTGATGCACGACATCACGTTGACGCTCGTCGA
DNA 2: GACTGACTCTGATCGACGAGCGTCAATCTCGCAACGTGCA
DNA 3: GACTGACTCTGATGCACGTTGCGAGACAGACGCTTGACGA
DNA 4: GACTGACTCTGATCGTCAAGCGTCTGCGTGATGTCGTGCA
modifications: DNA, all phosphodiester, methylation of C not given here
gel formation singly or on mixing [1]: did not form a gel singly

B3: Tetrapodna (10-15-15): four ODNs, SEQ ID NOs.: 26, 27, 28 and 29, 10-base cohesive protruding end (nucleic acid)
DNA 1: ACGTTAACGTTGCACGACATCAGCGTCTGACGCTCGTCGA
DNA 2: ACGTTAACGTTCGACGAGCGTCAGATCTCGCAACGCTGCA
DNA 3: ACGTTAACGTTGCAGCGTTGCGAGACAGACGCTTGACGCA
DNA 4: ACGTTAACGTTGCGTCAAGCGTCTGCGCTGATGTCGTGCA
modifications: DNA, all phosphodiester, methylation of C not given here
initial percentage of gels ([2]; DNA 0.5 mM, NaCl 150 mM): about 100% | percentage of the remaining gels with the passage of time ([2]; DNA 0.5 mM, NaCl 150 mM): decreased with the passage of time only slightly | gel formation [1]: gels can be prepared

B4: Tetrapodna (6-17-17): four ODNs, SEQ ID NOs.: 18, 19, 20 and 21, 6-base cohesive protruding end (nucleic acid)
DNA 1: AACGTTTACGCACGACATCAGCGTCTGGACGCTTCGTCGA
DNA 2: AACGTTTCGACGAAGCGTCCAGATCTCGTCAACGCTGCGA
DNA 3: AACGTTTCGCAGCGTTGACGAGACAGACGCTGTGACGCTA
DNA 4: AACGTTTAGCGTCACAGCGTCTGCGCTGATGTCGTGCGTA
modifications: unmodified DNA
initial percentage of gels ([2]; DNA 0.5 mM, NaCl 150 mM): about 100% | percentage of the remaining gels with the passage of time ([2]; DNA 0.5 mM, NaCl 150 mM): decreased with the passage of time only slightly | gel formation [1]: gels can be prepared

B5: Tetrapodna (A): SEQ ID NOs.: 34, 35, 36 and 37, 12-base non-palindrome cohesive protruding end (nucleic acid)
DNA 1: TCAGAGTCAGTCTGCACGACATCACGTTGACGCTCGTCGA
DNA 2: TCAGAGTCAGTCTCGACGAGCGTCAATCTCGCAACGTGCA
DNA 3: TCAGAGTCAGTCTGCACGTTGCGAGACAGACGCTTGACGA
DNA 4: TCAGAGTCAGTCTCGTCAAGCGTCTGCGTGATGTCGTGCA
modifications: DNA, all phosphodiester, methylation of C not given here
gel formation singly or on mixing [1]: did not form a gel singly

B6: Tripodna(4-18-18): nucleic acid unit of three ODNs, SEQ ID NOs.: 1, 2 and 3, 4-base palindrome cohesive protruding end, CpG (nucleic acid)
DNA 1: ACGTTCGTCAACGTCTGTGCTCTCACGTTGACGCTGTCGA
DNA 2: ACGTTCGACAGCGTCAACGTGAAACGTGAAGCGTCTGCGA
DNA 3: ACGTTCGCAGACGCTTCACGTTGAGCACAGACGTTGACGA
modifications: unmodified DNA
gelation ([3]; Na+ 2 mM, DNA 1.2 mM): X | gelation ([3]; Na+ 2 mM, DNA 1.4 mM): ◯ | gelation ([3]; Na+ 10 mM, DNA 1.2 mM): ◯ | gelation ([3]; Na+ 20 mM, DNA 1.0 mM): X | gelation ([3]; Na+ 50 mM, DNA 0.7 mM): X | gelation ([3]; Na+ 50 mM, DNA 0.8 mM): X | gelation ([3]; Na+ 50 mM, DNA 0.9 mM): X | gelation ([3]; Na+ 50 mM, DNA 1.0 mM): ◯ | gelation ([3]; Na+ 100 mM, DNA 0.7 mM): ◯ | gelation ([3]; Na+ 100 mM, DNA 0.8 mM): ◯ | gelation ([3]; Na+ 100 mM, DNA 0.9 mM): ◯ | gelation ([3]; Na+ 150 mM, DNA 0.6 mM): X | gel formation [1]: gels can be prepared

B7: Pentapodna (4-18-18): five ODNs, SEQ ID NOs.: 2, 3, 4, 7 and 8, 4-base cohesive protruding end (nucleic acid)
DNA 1: ACGTTCGACAGCGTCAACGTGAAACGTGAAGCGTCTGCGA
DNA 2: ACGTTCGCAGACGCTTCACGTTGAGCACAGACGTTGACGA
DNA 3: ACGTTCGCTGACGTTGCAGACATCACGTTGACGCTGTCGA
DNA 4: ACGTTCGTCAACGTCTGTGCTCGCAGCGTCTTAACGTCGA
DNA 5: ACGTTCGACGTTAAGACGCTGCTGTCTGCAACGTCAGCGA
modifications: unmodified DNA
gel formation [1]: gels can be prepared
